Test results as given in patent US20180155451A1 (published 2018).

B1: GpH7-A5/GpH7-B3 variant S337_15Y/GpL16-k0 (antibody, human IgG1, kappa)
heavy 1: not shown
heavy 2: not shown
light: DIVMTQSPLSLPVTPGEPASISCQASESLVHSNRNTYLHWYLQKPGQSPQLLIYKVSNRFSGVPDRFSGSGSGTDFTLKISRVEAEDVGVYYCSQNTHVPPTFGQGTKVEIERTVAAPSVFIFPPSDEQLKSGTASVVCLLNNFYPREAKVQWKVDNALQSGNSQESVTEQDSKDSTYSLSSTLTLSKADYEKHKVYACEVTHQGLSSPVTKSFNRGEC
notes: also called He Ab S337_15Y
B2: GpH7-A5/GpH7-B3 variant S337_18N/GpL16-k0 (antibody, human IgG1, kappa)
heavy 1: not shown
heavy 2: not shown
light: DIVMTQSPLSLPVTPGEPASISCQASESLVHSNRNTYLHWYLQKPGQSPQLLIYKVSNRFSGVPDRFSGSGSGTDFTLKISRVEAEDVGVYYCSQNTHVPPTFGQGTKVEIERTVAAPSVFIFPPSDEQLKSGTASVVCLLNNFYPREAKVQWKVDNALQSGNSQESVTEQDSKDSTYSLSSTLTLSKADYEKHKVYACEVTHQGLSSPVTKSFNRGEC
notes: also called He Ab S337_18N
B3: GpH7-A5/GpH7-B3 variant S337_20W/GpL16-k0 (antibody, human IgG1, kappa)
heavy 1: not shown
heavy 2: not shown
light: DIVMTQSPLSLPVTPGEPASISCQASESLVHSNRNTYLHWYLQKPGQSPQLLIYKVSNRFSGVPDRFSGSGSGTDFTLKISRVEAEDVGVYYCSQNTHVPPTFGQGTKVEIERTVAAPSVFIFPPSDEQLKSGTASVVCLLNNFYPREAKVQWKVDNALQSGNSQESVTEQDSKDSTYSLSSTLTLSKADYEKHKVYACEVTHQGLSSPVTKSFNRGEC
notes: also called He Ab S337_20W
B4: GpH7-A5/GpH7-B3 variant T335_07I/GpL16-k0 (antibody, human IgG1, kappa)
heavy 1: not shown
heavy 2: not shown
light: DIVMTQSPLSLPVTPGEPASISCQASESLVHSNRNTYLHWYLQKPGQSPQLLIYKVSNRFSGVPDRFSGSGSGTDFTLKISRVEAEDVGVYYCSQNTHVPPTFGQGTKVEIERTVAAPSVFIFPPSDEQLKSGTASVVCLLNNFYPREAKVQWKVDNALQSGNSQESVTEQDSKDSTYSLSSTLTLSKADYEKHKVYACEVTHQGLSSPVTKSFNRGEC
notes: also called He Ab T335_07I
B5: GpH7-A5/GpH7-B3 variant T335_10E/GpL16-k0 (antibody, human IgG1, kappa)
heavy 1: not shown
heavy 2: not shown
light: DIVMTQSPLSLPVTPGEPASISCQASESLVHSNRNTYLHWYLQKPGQSPQLLIYKVSNRFSGVPDRFSGSGSGTDFTLKISRVEAEDVGVYYCSQNTHVPPTFGQGTKVEIERTVAAPSVFIFPPSDEQLKSGTASVVCLLNNFYPREAKVQWKVDNALQSGNSQESVTEQDSKDSTYSLSSTLTLSKADYEKHKVYACEVTHQGLSSPVTKSFNRGEC
notes: also called He Ab T335_10E
B6: GpH7-A5/GpH7-B3 variant T335_13S/GpL16-k0 (antibody, human IgG1, kappa)
heavy 1: not shown
heavy 2: not shown
light: DIVMTQSPLSLPVTPGEPASISCQASESLVHSNRNTYLHWYLQKPGQSPQLLIYKVSNRFSGVPDRFSGSGSGTDFTLKISRVEAEDVGVYYCSQNTHVPPTFGQGTKVEIERTVAAPSVFIFPPSDEQLKSGTASVVCLLNNFYPREAKVQWKVDNALQSGNSQESVTEQDSKDSTYSLSSTLTLSKADYEKHKVYACEVTHQGLSSPVTKSFNRGEC
notes: also called He Ab T335_13S
B7: GpH7-A5/GpH7-B3 variant T335_15Y/GpL16-k0 (antibody, human IgG1, kappa)
heavy 1: not shown
heavy 2: not shown
light: DIVMTQSPLSLPVTPGEPASISCQASESLVHSNRNTYLHWYLQKPGQSPQLLIYKVSNRFSGVPDRFSGSGSGTDFTLKISRVEAEDVGVYYCSQNTHVPPTFGQGTKVEIERTVAAPSVFIFPPSDEQLKSGTASVVCLLNNFYPREAKVQWKVDNALQSGNSQESVTEQDSKDSTYSLSSTLTLSKADYEKHKVYACEVTHQGLSSPVTKSFNRGEC
notes: also called He Ab T335_15Y
B8: GpH7-A5/GpH7-B3 variant T335_16H/GpL16-k0 (antibody, human IgG1, kappa)
heavy 1: not shown
heavy 2: not shown
light: DIVMTQSPLSLPVTPGEPASISCQASESLVHSNRNTYLHWYLQKPGQSPQLLIYKVSNRFSGVPDRFSGSGSGTDFTLKISRVEAEDVGVYYCSQNTHVPPTFGQGTKVEIERTVAAPSVFIFPPSDEQLKSGTASVVCLLNNFYPREAKVQWKVDNALQSGNSQESVTEQDSKDSTYSLSSTLTLSKADYEKHKVYACEVTHQGLSSPVTKSFNRGEC
notes: also called He Ab T335_16H
B9: GpH7-A5/GpH7-B3 variant T335_19Q/GpL16-k0 (antibody, human IgG1, kappa)
heavy 1: not shown
heavy 2: not shown
light: DIVMTQSPLSLPVTPGEPASISCQASESLVHSNRNTYLHWYLQKPGQSPQLLIYKVSNRFSGVPDRFSGSGSGTDFTLKISRVEAEDVGVYYCSQNTHVPPTFGQGTKVEIERTVAAPSVFIFPPSDEQLKSGTASVVCLLNNFYPREAKVQWKVDNALQSGNSQESVTEQDSKDSTYSLSSTLTLSKADYEKHKVYACEVTHQGLSSPVTKSFNRGEC
notes: also called He Ab T335_19Q
B10: GpH7-A5/GpH7-B3 variant T335_20W/GpL16-k0 (antibody, human IgG1, kappa)
heavy 1: not shown
heavy 2: not shown
light: DIVMTQSPLSLPVTPGEPASISCQASESLVHSNRNTYLHWYLQKPGQSPQLLIYKVSNRFSGVPDRFSGSGSGTDFTLKISRVEAEDVGVYYCSQNTHVPPTFGQGTKVEIERTVAAPSVFIFPPSDEQLKSGTASVVCLLNNFYPREAKVQWKVDNALQSGNSQESVTEQDSKDSTYSLSSTLTLSKADYEKHKVYACEVTHQGLSSPVTKSFNRGEC
notes: also called He Ab T335_20W
B11: GpH7-A5/GpH7-B3 variant V266_08L/GpL16-k0 (antibody, human IgG1, kappa)
heavy 1: not shown
heavy 2: not shown
light: DIVMTQSPLSLPVTPGEPASISCQASESLVHSNRNTYLHWYLQKPGQSPQLLIYKVSNRFSGVPDRFSGSGSGTDFTLKISRVEAEDVGVYYCSQNTHVPPTFGQGTKVEIERTVAAPSVFIFPPSDEQLKSGTASVVCLLNNFYPREAKVQWKVDNALQSGNSQESVTEQDSKDSTYSLSSTLTLSKADYEKHKVYACEVTHQGLSSPVTKSFNRGEC
notes: also called He Ab V266_08L

biological target: T1, FcγRIIIa extracellular domain with C-terminal His tag (human, UniProt P08637 17-208); experiment: SPR relative binding; GpH7-A5/GpH7-B3/GpL16-k0 = 100
T1 construct: extracellular domain; also called FcgRIIIa; 3a; not shown: His tag at the C terminus
Protocol: Analysis of interaction between objective antibody and the FcγR was carried out using Biacore T100 (GE Healthcare). HBS-EP+ (GE Healthcare) was used as the running buffer, and the measurement temperature was set to 25° C. Chips produced by immobilizing the antigen peptide by the amine coupling method to a Series S Sencor Chip CM5 (GE Healthcare), or alternatively, chips produced by allowing preliminarily biotinylated antigen peptides to interact with and immobilize onto a Series S Sensor Chip SA (certified) (GE Healthcare) were used. Antibodies of interest were captured onto an antigen peptide-immobilized chip, and allowed to interact to each FcγR diluted with running buffer. To regenerate and repeatedly use the chip, the antibodies captured on the chip were washed off by reacting 10 mM glycine-HCl, pH 1.5.
The FcγR-binding activity of each antibody was assessed primarily using as an indicator the FcγR-binding activity and dissociation constant for FcγR.

T1 sequence (P08637 17-208): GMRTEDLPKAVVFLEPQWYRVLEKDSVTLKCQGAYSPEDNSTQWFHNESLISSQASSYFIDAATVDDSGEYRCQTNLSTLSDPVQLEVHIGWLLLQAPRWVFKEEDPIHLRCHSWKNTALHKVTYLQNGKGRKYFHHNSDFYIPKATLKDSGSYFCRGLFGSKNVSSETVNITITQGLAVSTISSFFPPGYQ

Binder	He/Con_3a
B1	102 % of control
B2	104 % of control
B3	101 % of control
B4	107 % of control
B5	107 % of control
B6	105 % of control
B7	104 % of control
B8	104 % of control
B9	102 % of control
B10	102 % of control
B11	118 % of control
